From patent publication US20110045046A1
Where no end group is shown, it is not given here. Side-chain parts run from the residue outwards.

T1: H-2K^b class I MHC molecule (mouse)
T1 chain 1: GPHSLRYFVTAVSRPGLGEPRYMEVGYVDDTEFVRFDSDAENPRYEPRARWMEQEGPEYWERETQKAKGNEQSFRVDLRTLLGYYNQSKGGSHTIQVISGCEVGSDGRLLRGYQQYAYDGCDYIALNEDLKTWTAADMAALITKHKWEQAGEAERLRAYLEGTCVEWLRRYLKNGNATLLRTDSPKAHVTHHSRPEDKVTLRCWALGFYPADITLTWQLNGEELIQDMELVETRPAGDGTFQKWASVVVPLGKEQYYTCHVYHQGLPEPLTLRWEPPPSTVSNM
T1 chain 2: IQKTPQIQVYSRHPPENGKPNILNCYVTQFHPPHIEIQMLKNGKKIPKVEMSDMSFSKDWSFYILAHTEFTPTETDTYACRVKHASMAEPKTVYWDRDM

B1: TLT(GalNAc-O-S)CNTSV (peptide)
peptide: TLTSCNTSV
modifications: not checked
B2: AIIA(β-Gal-[1->3]-α-GalNAc-O-serine)FAAL (peptide)
peptide: AIIAS([GalNAc-Gal])FAAL
B3: LLLL(Tn-T)LTV (peptide)
peptide: LLLLTVLTV
modifications: not checked
B4: … (peptide)
peptide: ALASAAAAV
modifications: not checked
B5: ALA(GALNAc-O-S)SAAAAV (peptide)
peptide: ALASAAAAV
modifications: not checked
B6: … (peptide)
peptide: TLTSCNTSV
modifications: not checked

Key:
HLA-A*0201 (human) [1] = assay: MHC binding assay with purified MHC molecules
HLA-A*0202 (human) = assay: MHC binding assay with purified MHC molecules
HLA-A*0203 (human) [2] = assay: MHC binding assay with purified MHC molecules
HLA-A*0206 (human) = assay: MHC binding assay with purified MHC molecules
[3] = target: T1, H-2K^b class I MHC molecule (mouse); assay: K^b binding capacity
HLA-A*0201 (human) [4] = assay: inhibition of binding of a radioiodinated peptide to the MHC molecule (50% inhibition; column headed KD)
HLA-A*0203 (human) [5] = assay: as above

| Binder | IC50 (HLA-A*0201 (human) [1]) [nM] | IC50 (HLA-A*0202 (human)) [nM] | IC50 (HLA-A*0203 (human) [2]) [nM] | IC50 (HLA-A*0206 (human)) [nM] | also measured |
| --- | --- | --- | --- | --- | --- |
| B1 | 0.72 | 15 | 8.2 | 24 | – |
| B2 | – | – | – | – | IC50 [3]: 7 nM |
| B3 | – | – | – | – | Kd (HLA-A*0201 (human) [4]): 1300 nM; Kd (HLA-A*0203 (human) [5]): 4290 nM |
| B4 | – | – | – | 266 | – |
| B5 | – | – | – | 81 | – |
| B6 | 0.29 | 8.1 | 13 | 15 | – |
